Source: PMC3474971

Target: thrombin (UniProt P00734;P00734 328-363;364-622)
Assay: dye-displacement fluorescence; YOYO-1 25 nM, aptamer 10 nM; 20 mM Tris-Cl pH 7.5, 300 mM NaCl, 5 mM MgCl2, 10 mM KCl; 25 C; 30 min incubation with target before dye

Binder: ATAGCGGAGGAAGGATACCTGGGGGAGTATAT (structured_DNA) [ATP aptamer]
- binding result: no binding
